Experiments:
[1] = target: human P2X7 (hP2X7) (human) (UniProt Q99572); assay: cell-based or functional assay
[2] = target: human P2X7 (hP2X7) (human) (UniProt Q99572); assay: flow cytometry, HEK cells co-transfected with GFP and hP2X7, bound antibody detected with Alexa647 anti-mouse IgG; other quadrants: UL 1.5, LL 16, LR 11
[3] = target: T1, rat P2X7 (rP2X7) (Rattus norvegicus, UniProt Q64663 1-595); assay: flow cytometry, HEK cells co-transfected with GFP and rP2X7, detection with Alexa647 anti-mouse IgG
T1 sequence: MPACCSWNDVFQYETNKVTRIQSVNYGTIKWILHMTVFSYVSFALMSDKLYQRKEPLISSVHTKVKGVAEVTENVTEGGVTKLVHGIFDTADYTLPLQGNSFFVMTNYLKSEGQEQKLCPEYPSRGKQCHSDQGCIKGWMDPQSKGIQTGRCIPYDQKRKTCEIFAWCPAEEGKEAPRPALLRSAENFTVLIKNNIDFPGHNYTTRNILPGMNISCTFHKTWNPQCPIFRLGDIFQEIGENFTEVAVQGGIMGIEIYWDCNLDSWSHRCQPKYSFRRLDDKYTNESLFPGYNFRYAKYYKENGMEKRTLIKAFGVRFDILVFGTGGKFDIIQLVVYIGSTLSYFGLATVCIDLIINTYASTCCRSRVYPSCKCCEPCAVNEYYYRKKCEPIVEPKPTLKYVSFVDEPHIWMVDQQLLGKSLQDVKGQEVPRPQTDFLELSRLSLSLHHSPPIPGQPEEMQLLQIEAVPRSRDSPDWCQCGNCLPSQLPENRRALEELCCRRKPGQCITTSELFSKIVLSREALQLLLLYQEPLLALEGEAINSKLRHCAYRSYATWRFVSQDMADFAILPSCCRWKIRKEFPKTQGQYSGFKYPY
Source text: (§1) In order to verify the specificity of the selected Nbs and to determine whether the Nbs would bind also to mouse P2X7 or rat P2X7, HEK cells were co-transfected with expression constructs for GFP and either hP2X7, mP2X7, or rP2X7. Twenty four hours post transfection cells were stained with Nb-Fc fusion proteins or mAb L4 before FACS analyses (FIG. 3). […] By comparison, previously described Nbs 13A7 and 14D5 (WO 2010/070145) recognize mP2X7, but not hP2X7 or rP2X7, mAb L4 recognizes hP2X7 and rP2X7, but not mP2X7.

[4] = target: human P2X7 (hP2X7) (human) (UniProt Q99572); assay: flow cytometry, HEK cells co-transfected with GFP and hP2X7, bound antibody detected with Alexa647 anti-mouse IgG; other quadrants: UL 72, LL 26, LR 0.5
[5] = target: T2, mouse P2X7 (mP2X7) (mus musculus, UniProt Q9Z1M0 1-595); assay: flow cytometry, HEK cells co-transfected with GFP and mP2X7, detection with Alexa647 anti-mouse IgG
T2 construct: Also used here for endogenous P2X7 on Yac-1 cells, primary mouse lymphocytes and macrophages
T2 chain: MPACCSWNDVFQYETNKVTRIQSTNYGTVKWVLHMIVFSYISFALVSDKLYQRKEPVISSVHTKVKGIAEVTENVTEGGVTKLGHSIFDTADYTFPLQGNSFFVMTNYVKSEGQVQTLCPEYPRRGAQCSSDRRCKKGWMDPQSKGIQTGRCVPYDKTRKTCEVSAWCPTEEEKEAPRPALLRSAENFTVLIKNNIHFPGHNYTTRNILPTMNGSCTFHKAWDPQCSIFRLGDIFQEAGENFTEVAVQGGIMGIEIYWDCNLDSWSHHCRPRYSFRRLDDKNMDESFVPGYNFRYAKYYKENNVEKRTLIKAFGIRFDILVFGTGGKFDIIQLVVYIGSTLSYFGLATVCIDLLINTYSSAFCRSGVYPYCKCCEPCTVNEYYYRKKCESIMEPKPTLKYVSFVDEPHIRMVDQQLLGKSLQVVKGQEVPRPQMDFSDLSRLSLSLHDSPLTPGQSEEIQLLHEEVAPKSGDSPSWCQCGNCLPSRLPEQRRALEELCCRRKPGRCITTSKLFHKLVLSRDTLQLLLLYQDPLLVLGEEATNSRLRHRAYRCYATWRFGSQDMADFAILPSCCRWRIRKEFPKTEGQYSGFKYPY
Source text: as §1

[6] = target: human P2X7 (hP2X7) (human) (UniProt Q99572); assay: flow cytometry of whole blood of one donor, gate on lymphocytes, Alexa647 conjugate with anti-CD4; unblocked = pre-incubated with control 1067-Fc
[7] = target: human P2X7 (hP2X7) (human) (UniProt Q99572); assay: flow cytometry, HEK cells co-transfected with GFP and hP2X7, bound antibody detected with Alexa647 anti-mouse IgG; other quadrants: UL 0.8, LL 12, LR 15
[8] = target: human P2X7 (hP2X7) (human) (UniProt Q99572); assay: flow cytometry of whole blood of one donor, gate on lymphocytes, Alexa647 conjugate with anti-CD4; unblocked = pre-incubated with control 1067-Fc; lower quadrants 24 and 19
[9] = target: human P2X7 (hP2X7) (human) (UniProt Q99572); assay: flow cytometry of whole blood of one donor, gate on lymphocytes, Alexa647 conjugate with anti-CD4; blocked = pre-incubated with excess unlabelled Nb-Fc (legend: 3 ug each of 1c113-Fc and 3c23-Fc); lower quadrants 44 and 54
[10] = target: human P2X7 (hP2X7) (human) (UniProt Q99572); assay: flow cytometry, HEK cells co-transfected with GFP and hP2X7, bound antibody detected with Alexa647 anti-mouse IgG; other quadrants: UL 0.7, LL 12, LR 15
[11] = target: human P2X7 (hP2X7) (human) (UniProt Q99572); assay: flow cytometry of whole blood of one donor, gate on lymphocytes, Alexa647 conjugate with anti-CD4; unblocked = pre-incubated with control 1067-Fc; lower quadrants 23 and 19
[12] = target: human P2X7 (hP2X7) (human) (UniProt Q99572); assay: flow cytometry of whole blood of one donor, gate on lymphocytes, Alexa647 conjugate with anti-CD4; blocked = pre-incubated with excess unlabelled Nb-Fc (legend: 3 ug each of 1c113-Fc and 3c23-Fc); lower quadrants 44 and 55
[13] = target: human P2X7 (hP2X7) (human) (UniProt Q99572); assay: flow cytometry, HEK cells co-transfected with GFP and hP2X7, bound antibody detected with Alexa647 anti-mouse IgG; other quadrants: UL 71, LL 27, LR 0.5

human P2X7 (hP2X7) (human), sequence (Q99572 whole entry): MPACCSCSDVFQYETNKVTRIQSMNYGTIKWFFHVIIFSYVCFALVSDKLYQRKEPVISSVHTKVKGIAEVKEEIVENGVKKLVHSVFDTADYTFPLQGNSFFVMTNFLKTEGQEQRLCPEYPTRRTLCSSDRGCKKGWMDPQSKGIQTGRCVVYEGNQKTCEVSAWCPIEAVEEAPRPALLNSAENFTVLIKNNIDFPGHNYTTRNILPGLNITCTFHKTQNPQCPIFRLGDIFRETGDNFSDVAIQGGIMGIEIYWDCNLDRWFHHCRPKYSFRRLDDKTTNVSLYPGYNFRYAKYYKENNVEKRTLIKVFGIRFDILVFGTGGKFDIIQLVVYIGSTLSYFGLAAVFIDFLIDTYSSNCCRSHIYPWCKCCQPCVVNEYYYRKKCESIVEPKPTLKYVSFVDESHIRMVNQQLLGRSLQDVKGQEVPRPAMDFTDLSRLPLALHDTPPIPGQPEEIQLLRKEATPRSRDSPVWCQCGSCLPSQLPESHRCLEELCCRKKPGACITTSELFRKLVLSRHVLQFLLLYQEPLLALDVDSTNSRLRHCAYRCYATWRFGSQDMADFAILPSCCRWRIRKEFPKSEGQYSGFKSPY

B1: 1c81-Fc (Nb 1c81 fused to the Fc-domain of mouse IgG1) (Fc fusion, not shown: small tags and cut ends; a dimerising Fc or GST)
chain: EVQLVESGGKLVQAGGSLRLSCSASGRTFSFSTSTMGWFRQAPGKELEFVAAIDWSDFNTYYADSVKGRFTISRHNPRNSVYLQLNSLKPEDTAVYYCAAHSETRGGTRYFDRPSLYNYWGQGTQVTVSSA
IC50 [nM], blockade of L-selectin (CD62L) shedding in transfected HEK cells, 4 mM ATP [1]: 5 nM
IC50 [ng/ml], blockade of L-selectin (CD62L) shedding in transfected HEK cells, 4 mM ATP [1]: 400 ng/mL
fold enhanced potency to block activation of P2X7, Nb-Fc fusion protein against its monovalent counterpart [1]: 5 to 20 fold
molar inhibition potency relative to monovalent 1c81 (CD62L shedding) [1]: 20 fold
% of cells in the GFP+ / anti-mIgG A647+ quadrant (upper right) [2]: 71%

B2: Nb 3c23 (monovalent) (VHH)
VHH: EVQLVESGGGLVQAGGSLRLSCAASGRTFRHYAMGWFRQAPGKEREFVAAISSYGSTDYGDSVKGRFTISRDDAKNTVPLQMNSLKPEDTAVYYCAAADETLGAVPNFRLHEKYEYEYWGQGTQVTVSS
IC50 [nM], blockade of L-selectin (CD62L) shedding in transfected HEK cells, 4 mM ATP [1]: 2.7 nM
IC50 [ng/ml], blockade of L-selectin (CD62L) shedding in transfected HEK cells, 4 mM ATP [1]: 40 ng/mL

B3: Nb 1c113 (monovalent) (VHH)
VHH: EVQLVESGGGLVQPGGSLTLSCAASGIAFNYYSMSWHRQAPGKQRTLVADISPGGHTEYEDSVKGRFTISRDNFKNTMTLHMNSLKPEDTAVYFCAARLRFEVSSNYWGQGTQVTVSS
IC50 [nM], blockade of L-selectin (CD62L) shedding in transfected HEK cells, 4 mM ATP [1]: > 185 nM
IC50 [ng/ml], blockade of L-selectin (CD62L) shedding in transfected HEK cells, 4 mM ATP [1]: > 2800 ng/mL

B4: 14D5-Fc (Nb-Fc fusion protein of Nb 14D5) (Fc fusion)
chain: KVQLVESGGGLVQAGGSLRLSCAASGSPISSYAMGWYRQAPGKPRELVARIYTGGTAWYEDSVKGRFTISRDNAQNTVYLQMNSLKSEDTAVYYCHGRVRYDYWGQGTQVTVSS
notes: Nb-Fc fusion; not shown: Fc part
binding result [3]: no binding
% of cells in the GFP+ / anti-mIgG A647+ quadrant (upper right) [4]: 1.2%

B5: 1c113-Fc (pME 1c113-mIgG1Fc_LSF) (Fc fusion)
chain: DYKDDDDKRSMAEVQLVESGGGLVQPGGSLTLSCAASGIAFNYYSMSWHRQAPGKQRTLVADISPGGHTEYEDSVKGRFTISRDNFKNTMTLHMNSLKPEDTAVYFCAARLRFEVSSNYWGQGTQVTVSSLEPRDCGCKPCICTVPEVSSEVSSVFIFPPKPKDVLLISLFPKVTCVVVDISKDDPEVQFSWFVDDVEVHTAQTQPREEQFNSTFRSVSELPIMHQDWLNGKEFKCRVNSAAFPAPIEKTISKTKGRPKAPQVYTIPPPKEQMAKDKVSLTCMITDFFPEDITVEWQWNGQPAENYKNTQPIMDTDGSYFVYSKLNVQKSNWEAGNTFTCSVLHEGLHNHHTEKSLSHSPGKGK
notes: Used unconjugated or conjugated to Alexa647; also called WD1c113Fc; Nb 1c113-Fc
IC50 [nM], blockade of L-selectin (CD62L) shedding in transfected HEK cells, 4 mM ATP [1]: > 35 nM
IC50 [ng/ml], blockade of L-selectin (CD62L) shedding in transfected HEK cells, 4 mM ATP [1]: > 2800 ng/mL
binding result [5]: no binding
binding result [3]: no binding
MFI (AF647) of CD4+ lymphocytes, unblocked [6]: 17
MFI (AF647) of CD4- lymphocytes, unblocked [6]: 14
% of cells in the GFP+ / anti-mIgG A647+ quadrant (upper right) [7]: 72%
% of lymphocytes in the CD4+ / AF647+ quadrant (upper right), unblocked [8]: 35%
% of lymphocytes in the CD4- / AF647+ quadrant (upper left), unblocked [8]: 22%
% of lymphocytes in the CD4+ / AF647+ quadrant (upper right), blocked [9]: 0.7%
% of lymphocytes in the CD4- / AF647+ quadrant (upper left), blocked [9]: 0.8%

B6: 3c23-Fc (Nb 3c23 fused to the Fc-domain of mouse IgG1) (Fc fusion)
chain: EVQLVESGGGLVQAGGSLRLSCAASGRTFRHYAMGWFRQAPGKEREFVAAISSYGSTDYGDSVKGRFTISRDDAKNTVPLQMNSLKPEDTAVYYCAAADETLGAVPNFRLHEKYEYEYWGQGTQVTVSSA
notes: Bivalent N-terminally FLAG-tagged Nb-Fc fusion protein made in HEK cells; Used unconjugated or conjugated to Alexa647; also called WD3c23Fc; Nb 3c23-Fc; not shown: N-terminal FLAG tag; Fc-domain of mouse IgG1
IC50 [nM], blockade of L-selectin (CD62L) shedding in transfected HEK cells, 4 mM ATP [1]: 0.6 nM
IC50 [ng/ml], blockade of L-selectin (CD62L) shedding in transfected HEK cells, 4 mM ATP [1]: 50 ng/mL
fold enhanced potency to block activation of P2X7, Nb-Fc fusion protein against its monovalent counterpart [1]: 5 to 20 fold
molar inhibition potency relative to monovalent 3c23 (CD62L shedding) [1]: 4 fold
binding result [5]: no binding
binding result [3]: no binding
MFI (AF647) of CD4+ lymphocytes, unblocked [6]: 17
MFI (AF647) of CD4- lymphocytes, unblocked [6]: 14
% of cells in the GFP+ / anti-mIgG A647+ quadrant (upper right) [10]: 72%
% of lymphocytes in the CD4+ / AF647+ quadrant (upper right), unblocked [11]: 35%
% of lymphocytes in the CD4- / AF647+ quadrant (upper left), unblocked [11]: 24%
% of lymphocytes in the CD4+ / AF647+ quadrant (upper right), blocked [12]: 0.4%
% of lymphocytes in the CD4- / AF647+ quadrant (upper left), blocked [12]: 0.7%

B7: Nb 1c81 (monovalent) (VHH)
VHH: EVQLVESGGKLVQAGGSLRLSCSASGRTFSFSTSTMGWFRQAPGKELEFVAAIDWSDFNTYYADSVKGRFTISRHNPRNSVYLQLNSLKPEDTAVYYCAAHSETRGGTRYFDRPSLYNYWGQGTQVTVSS
IC50 [nM], blockade of L-selectin (CD62L) shedding in transfected HEK cells, 4 mM ATP [1]: 100 nM
IC50 [ng/ml], blockade of L-selectin (CD62L) shedding in transfected HEK cells, 4 mM ATP [1]: 1500 ng/mL

B8: 13A7-Fc (Nb-Fc fusion protein of Nb 13A7) (Fc fusion)
chain: EVQLVESGGGLVQPGESLRLSCTASRFMLDYYDIGWFRQAPGKEREGVSCRFTNDGSTAYADSVKGRFTISRDIVKHTVYLQMNSLQPEDTAVYYCAAGPLTKRRQCVPGDFSMDFWGEGTLVTVSS
notes: Nb-Fc fusion; also called fluorochrome-conjugated Nb 13A7; not shown: Fc part
binding result [3]: no binding
% of cells in the GFP+ / anti-mIgG A647+ quadrant (upper right) [13]: 1.2%

From patent US20180244769A1 (Ablynx, published 2018)
